These results are taken from article PMC4925323 (Molecular microbiology, 2016).

The data set concerns the molecule itself. Put plainly: crystal structure.

B1: Listeria monocytogenes PrsA1 (residues 22-294), wild type (domain or fragment)
chain: CGSSAVIKTDAGSVTQDELYEAMKTTYGNEVVQQLTFKKILEDKYTVTEKEVNAEYKKYEEQYGDSFESTLSSNNLTKTSFKENLEYNLLVQKATEANMDVSESKLKAYYKTWEPDITVRHILVDDEATAKEIQTKLKNGEKFTDLAKEYSTDTATSTNGGLLDPFGPGEMDETFEKAAYALENKDDVSGIVKSTYGYHLIQLVKKTEKGTYAKEKANVKAAYIKSQLTSENMTAALKKELKAANIDIKDSDLKDAFADYTSTSSTSSTTTSN
B1: the “stoichiometry N” value came to 2.
